Assay results published in US5811533, “High-affinity oligonucleotide ligands to vascular endothelial growth factor (VEGF)” (NeXstar Pharmaceuticals, Inc.).

How the values were obtained:
[1] = biological target: T1, VEGF165 (recombinant human vascular endothelial growth factor, 165 aa form) (Homo sapiens, UniProt P15692-4 P15692-4:27-191); assay: filter; PBS, 0.01% HSA, 37 C; Kd1, X1 0.76, Kd2 180 nM; details: tags: gift from N. Ferrara, Genentech; chain copies: 2 (dimer, stated); label: 32P; bulged hairpin
Procedure: (§1) Internally-labeled RNA ligands used for binding studies were prepared by in vitro transcription using T7 RNA polymerase (Milligan et al. (1987) Nucl. Acids Res. 15:8783) and were purified on denaturing polyacrylamide gels to ensure size homogeneity. All RNA ligands were diluted to about 1 nM in PBS, denatured at 90° C. for 2 minutes, and then cooled on ice prior to incubation with the protein. This denaturation/renaturation cycle performed at high dilution is necessary to ensure that the RNA is essentially free from dimers and other higher order aggregates. Concentrations of the stock solutions of VEGF, from which other dilutions were made, were determined from the absorbance reading at 280 nm using the calculated value for ε280 of 46,600 M^-1cm^-1 for the VEGF dimer (Gill et al. (1989) Anal. Biochem. 182:319). Data sets that define the binding curves were fit to either eq. 2 or eq. 5 by the non-linear least squares method using the software package Kaleidagraph (Synergy Software, Reading, Pa.). […]

[2] = biological target: T1, VEGF165 (recombinant human vascular …); assay: filter; monophasic; details: tags: gift from N. Ferrara, Genentech; chain copies: 2 (dimer, stated)
[3] = biological target: T1, VEGF165 (recombinant human vascular …); assay: filter; Kd1, X1 0.54, Kd2 9 nM; details: tags: gift from N. Ferrara, Genentech; chain copies: 2 (dimer, stated)
[4] = biological target: T1, VEGF165 (recombinant human vascular …); assay: filter; PBS, 0.01% HSA, 37 C; Kd1, X1 0.82, Kd2 42 nM; details: tags: gift from N. Ferrara, Genentech; chain copies: 2 (dimer, stated); label: 32P
Procedure: as §1

[5] = biological target: T1, VEGF165 (recombinant human vascular …); assay: filter; PBS, 0.01% HSA, 37 C; Kd1, X1 0.54, Kd2 181 nM; details: tags: gift from N. Ferrara, Genentech; chain copies: 2 (dimer, stated); label: 32P
Procedure: as §1

[6] = biological target: T1, VEGF165 (recombinant human vascular …); assay: filter; PBS, 0.01% HSA, 37 C; Kd1, X1 0.19, Kd2 10 nM; details: tags: gift from N. Ferrara, Genentech; chain copies: 2 (dimer, stated); label: 32P
Procedure: as §1

[7] = biological target: T1, VEGF165 (recombinant human vascular …); assay: filter; PBS, 0.01% HSA, 37 C; Kd1, X1 0.40, Kd2 11 nM; details: tags: gift from N. Ferrara, Genentech; chain copies: 2 (dimer, stated); label: 32P
Procedure: as §1

[8] = biological target: T1, VEGF165 (recombinant human vascular …); assay: filter; PBS, 0.01% HSA, 37 C; monophasic; details: tags: gift from N. Ferrara, Genentech; chain copies: 2 (dimer, stated); label: 32P; bulged hairpin
Procedure: as §1

[9] = biological target: T1, VEGF165 (recombinant human vascular …); assay: filter; Kd1, X1 0.68, Kd2 ~100 nM; details: tags: gift from N. Ferrara, Genentech; chain copies: 2 (dimer, stated)
[10] = biological target: T1, VEGF165 (recombinant human vascular …); assay: filter; PBS, 0.01% HSA, 37 C; Kd1, X1 0.53, Kd2 31 nM; details: tags: gift from N. Ferrara, Genentech; chain copies: 2 (dimer, stated); label: 32P; asymmetrical internal loop
Procedure: as §1

[11] = biological target: T1, VEGF165 (recombinant human vascular …); assay: inhibition; VEGF receptor binding; single value printed in Ki column; details: tags: gift from N. Ferrara, Genentech; chain copies: 2 (dimer, stated)
[12] = biological target: T1, VEGF165 (recombinant human vascular …); assay: filter; details: tags: gift from N. Ferrara, Genentech; chain copies: 2 (dimer, stated)
[13] = biological target: T1, VEGF165 (recombinant human vascular …); assay: inhibition; VEGF receptor binding; details: tags: gift from N. Ferrara, Genentech; chain copies: 2 (dimer, stated)
[14] = biological target: T1, VEGF165 (recombinant human vascular …); assay: filter; PBS, 0.01% HSA, 37 C; Kd1, X1 0.70, Kd2 38 nM; details: tags: gift from N. Ferrara, Genentech; chain copies: 2 (dimer, stated); label: 32P
Procedure: as §1

[15] = biological target: T1, VEGF165 (recombinant human vascular …); assay: filter; PBS, 0.01% HSA, 37 C; Kd1, X1 0.45, Kd2 21 nM; details: tags: gift from N. Ferrara, Genentech; chain copies: 2 (dimer, stated); label: 32P
Procedure: as §1

T1 sequence (P15692 other isoform, or with tags, fused parts or gaps): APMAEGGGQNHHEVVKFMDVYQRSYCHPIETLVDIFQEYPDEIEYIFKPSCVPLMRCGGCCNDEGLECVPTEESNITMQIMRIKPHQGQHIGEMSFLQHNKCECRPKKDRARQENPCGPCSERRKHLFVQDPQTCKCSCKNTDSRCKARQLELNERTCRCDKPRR

Binder: GGAAGGGAACCUGCGUCUCGGCACCUUCG (ssRNA) [ligand 12t]
- Kd [1]: 1.1 nM

B1: 23A (ssRNA)
RNA: GGGAGACAAGAAUAACGCUCAAGAGGCUGAUGGCAGACGCGGCCGAAGACAUUCGACAGGAGGCUCACAACAGGC
modifications: 2'-NH2 pyrimidines
- Kd [2]: 2.8 nM

B2: 44B (ssRNA)
RNA: GGGAGGACGAUGCGGAACCGAGUCGUGUGGGUUGGGGCUCCAGUACAUCCCCGGUCUGGGUGUCAGACGACUCGCCCGA
modifications: 2'-NH2 pyrimidines
- Kd [3]: 0.14 nM

B3: ligand 100 (ssRNA)
RNA: GGGAGCUCAGAAUAAACGCUCAACCGGUAGUCGCAUGGCCCAUCGCGCCCGGUUCGACAUGAGGCCCGGAUCCGGC
- Kd [4]: 0.2 nM

Binder: GGAACGGUUCUGUGUGUGGACUAGCCGCGGCCGUU (ssRNA) [ligand 126t]
- Kd [5]: 1.4 nM

B4: ligand 40 (ssRNA)
RNA: GGGAGCUCAGAAUAAACGCUCAAGACCCAUCGUCAACGGUUGAGUCUGUCCCGUUCGACAUGAGGCCCGGAUCCGGC
- Kd [6]: 0.19 nM

B5: ligand 126 (ssRNA)
RNA: GGGAGCUCAGAAUAAACGCUCAAACGGUUCUGUGUGUGGACUAGCCGCGGCCGUUCGACAUGAGGCCCGGAUCCGGC
- Kd [7]: 0.14 nM

Binder: GGUCAACGGUUGAGUCUGUCCCGUUCGAC (ssRNA) [ligand 40t]
- Kd [8]: 20 nM

B6: 41A (ssRNA)
RNA: GGGAGACAAGAAUAACGCUCAAAACGGAGUGGUAGGCGUUGGGUGCCAGGAAUUCGACAGGAGGCUCACAACAGGC
modifications: 2'-NH2 pyrimidines
- Kd [9]: 0.86 nM

Binder: GGCUCAAUAGUUGGAGGCCUGUCCUCGCCGUAGAGC (ssRNA) [ligand 84t]
- Kd [10]: 1.8 nM

Binder: ACCCUGAUGGUAGACGCCGGGGUG (ssRNA, 2'-NH2 pyrimidines) [NX-107]
- Ki [11]: 1 nM

Binder: CCCGTCTTCCAGACAAGAGTGCAGGG (ssDNA) [33t]
- Kd [12]: 0.7 nM
- Ki [13]: 3 nM

B7: ligand 44 (ssRNA)
RNA: GGGAGCUCAGAAUAAACGCUCAAGCUUGAUGGGUGACACACGUCAUGCCGAGCUUCGACAUGAGGCCCGGAUCCGGC
- Kd [14]: 1.7 nM

B8: ligand 84 (ssRNA)
RNA: GGGAGCUCAGAAUAAACGCUCAAUAGUUGGAGGCCUGUCCUCGCCGUAGAGCGUUCGACAUGAGGCCCGGAUCCGGC
- Kd [15]: 0.82 nM
